The values that follow come from PMC10397247.

Test [1] has as its target T1, P2A-bS.
T1 chain: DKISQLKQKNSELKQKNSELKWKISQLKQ
Kind of test: two-hybrid library CCNG1.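 Note: natural log of median RNA to DNA barcode read ratio; higher means stronger binding.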

Test [2] has as its target T2, P7A-bS.
T2 chain: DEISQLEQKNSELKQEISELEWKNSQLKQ
Kind of test: two-hybrid library CCNG1.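 Note: natural log of median RNA to DNA barcode read ratio; higher means stronger binding.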

Test [3] has as its target T3, P12A-bS.
T3 chain: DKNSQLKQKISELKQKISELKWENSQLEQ
The test can be described thus: two-hybrid library CCNG1.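 Note: natural log of median RNA to DNA barcode read ratio; higher means stronger binding.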

Test [4] addresses T4, P1A-bS.
T4 chain: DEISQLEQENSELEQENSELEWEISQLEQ
The test can be described thus: two-hybrid library CCNG1.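 Note: natural log of median RNA to DNA barcode read ratio; higher means stronger binding.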

Test [5] addresses T5, P6A-bS.
T5 chain: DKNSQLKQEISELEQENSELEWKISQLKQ
Kind of test: two-hybrid library CCNG1.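 Note: natural log of median RNA to DNA barcode read ratio; higher means stronger binding.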

The target of test [6] is T6, P9A-bS.
T6 chain: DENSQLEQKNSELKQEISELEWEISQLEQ
The test can be described thus: two-hybrid library CCNG1.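 Note: natural log of median RNA to DNA barcode read ratio; higher means stronger binding.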

In test [7] the target is T7, P4A-bS.
T7 chain: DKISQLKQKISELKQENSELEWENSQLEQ
Kind of test: two-hybrid library CCNG1.

Test [8] has as its target T8, P5A-bS.
T8 chain: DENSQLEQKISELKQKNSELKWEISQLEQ
Kind of test: two-hybrid library CCNG1.

The target of test [9] is T9, P8A-bS.
T9 chain: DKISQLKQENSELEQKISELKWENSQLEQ
The test can be described thus: two-hybrid library CCNG1.

In test [10] the target is T10, P3A-bS.
T10 chain: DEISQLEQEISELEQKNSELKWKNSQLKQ
Kind of test: two-hybrid library CCNG1.

In test [11] the target is T11, P11A-bS.
T11 chain: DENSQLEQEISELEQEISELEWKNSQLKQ
The test can be described thus: two-hybrid library CCNG1.

Test [12] concerns the target T12, P2-AA-1HAA-T.
T12 chain: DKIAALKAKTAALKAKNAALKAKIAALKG
The test can be described thus: two-hybrid library CCmax. The following applies: mean of both orientations.

For test [13], the target named is T13, P2-AA-1HAA-E.
T13 chain: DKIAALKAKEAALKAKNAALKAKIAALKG
The test can be described thus: two-hybrid library CCmax. As to conditions: mean of both orientations.

In test [14] the target is T14, P2-AA-1HAA-K.
T14 chain: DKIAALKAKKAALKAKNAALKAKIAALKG
Kind of test: two-hybrid library CCmax. The following applies: mean of both orientations.

The target in test [15] is T15, P2-AA-1HAA-R.
T15 chain: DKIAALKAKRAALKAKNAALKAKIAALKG
The test can be described thus: two-hybrid library CCmax. The following applies: mean of both orientations.

Test [16] has as its target T16, P2-AA-1HAA-S.
T16 chain: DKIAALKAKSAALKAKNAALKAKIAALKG
Kind of test: two-hybrid library CCmax. As to conditions: mean of both orientations.

Test [17] addresses T17, P2-AA.
T17 chain: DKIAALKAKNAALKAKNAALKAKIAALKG
The test can be described thus: two-hybrid library CCmax. The following applies: mean of both orientations.

Test [18] addresses T18, 4H2253-AA.
T18 chain: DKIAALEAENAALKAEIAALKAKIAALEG
Kind of test: two-hybrid library CCmax. As to conditions: mean of both orientations.

Test [19] has as its target T19, 4H2165-AA.
T19 chain: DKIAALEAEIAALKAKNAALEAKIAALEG
Kind of test: two-hybrid library CCmax. As to conditions: mean of both orientations.

For test [20], the target named is T20, 4H2330-AA.
T20 chain: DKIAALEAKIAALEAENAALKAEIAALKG
Kind of test: two-hybrid library CCmax. The following applies: mean of both orientations.

Test [21] deals with T21, 4H3001-AA.
T21 chain: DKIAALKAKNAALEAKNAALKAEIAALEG
The test can be described thus: two-hybrid library CCmax. The following applies: mean of both orientations.

Test [22] deals with T22, 4H175-AA.
T22 chain: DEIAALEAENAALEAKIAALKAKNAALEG
The test can be described thus: two-hybrid library CCmax. As to conditions: mean of both orientations.

The target in test [23] is T23, 4H347-AA.
T23 chain: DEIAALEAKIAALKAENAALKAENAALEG
The test can be described thus: two-hybrid library CCmax. The following applies: mean of both orientations.

Test [24] deals with T24, 4H2592-AA.
T24 chain: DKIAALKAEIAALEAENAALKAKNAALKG
The test can be described thus: two-hybrid library CCmax. As to conditions: mean of both orientations.

Test [25] addresses T25, 4H452-AA.
T25 chain: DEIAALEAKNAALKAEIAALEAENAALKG
Kind of test: two-hybrid library CCmax. The following applies: mean of both orientations.

Test [26] concerns the target T26, 4H3073-AA.
T26 chain: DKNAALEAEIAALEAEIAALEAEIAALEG
The test can be described thus: two-hybrid library CCmax. The following applies: mean of both orientations.

Test [27] addresses T27, 4H1821-AA.
T27 chain: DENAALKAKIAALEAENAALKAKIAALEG
The test can be described thus: two-hybrid library CCmax.

For test [28], the target named is T28, 4H_BCR.
T28 chain: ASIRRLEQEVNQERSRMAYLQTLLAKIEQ
The test can be described thus: two-hybrid library CCmax. The following applies: mean of both orientations.

The target of test [29] is T29, 4H3438-AA.
T29 chain: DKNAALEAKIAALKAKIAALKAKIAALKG
The test can be described thus: two-hybrid library CCmax.

Test [30] deals with T30, 4H2774-AA.
T30 chain: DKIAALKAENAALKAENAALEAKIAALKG
The test can be described thus: two-hybrid library CCmax. As to conditions: mean of both orientations.

The target in test [31] is 4H_GCN4. Kind of test: two-hybrid library CCmax.
4H_GCN4, sequence (chain, as listed by the source): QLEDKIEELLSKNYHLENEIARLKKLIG
For test [32], the target named is T31, 4H1828-AA.
T31 chain: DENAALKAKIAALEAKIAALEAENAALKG
The test can be described thus: two-hybrid library CCmax. The following applies: mean of both orientations.

The target in test [33] is T32, 4H3015-AA.
T32 chain: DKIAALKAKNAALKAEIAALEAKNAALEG
The test can be described thus: two-hybrid library CCmax. As to conditions: mean of both orientations.

Test [34] concerns the target T33, 4H2732-AA.
T33 chain: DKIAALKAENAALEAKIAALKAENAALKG
The test can be described thus: two-hybrid library CCmax. As to conditions: mean of both orientations.

Test [35] has as its target T34, 4H1765-AA.
T34 chain: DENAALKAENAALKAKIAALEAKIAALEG
The test can be described thus: two-hybrid library CCmax. As to conditions: mean of both orientations.

Test [36] concerns the target T35, 4H2466-AA.
T35 chain: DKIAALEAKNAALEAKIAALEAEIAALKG
Kind of test: two-hybrid library CCmax. As to conditions: mean of both orientations.

Test [37] deals with T36, 4H1650-AA.
T36 chain: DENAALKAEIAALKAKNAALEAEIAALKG
The test can be described thus: two-hybrid library CCmax.

Test [38] deals with T37, 4H56-AA.
T37 chain: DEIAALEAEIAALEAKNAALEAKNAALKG
The test can be described thus: two-hybrid library CCmax. The following applies: mean of both orientations.

In test [39] the target is GCN2_T. The test can be described thus: two-hybrid library CCmax.
Test [40] concerns the target T38, 4H406-AA.
T38 chain: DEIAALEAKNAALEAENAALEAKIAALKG
The test can be described thus: two-hybrid library CCmax. As to conditions: mean of both orientations.

For test [41], the target named is T39, 4H2931-AA.
T39 chain: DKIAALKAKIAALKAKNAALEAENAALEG
Kind of test: two-hybrid library CCmax. The following applies: mean of both orientations.

Test [42] addresses T40, 4H_APH.
T40 chain: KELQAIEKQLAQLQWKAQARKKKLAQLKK
Kind of test: two-hybrid library CCmax. As to conditions: mean of both orientations.

In test [43] the target is T41, 4H1930-AA.
T41 chain: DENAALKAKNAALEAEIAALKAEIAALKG
Kind of test: two-hybrid library CCmax. The following applies: mean of both orientations.

Test [44] concerns the target T42, 4H249-AA.
T42 chain: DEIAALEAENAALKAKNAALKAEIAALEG
Kind of test: two-hybrid library CCmax. The following applies: mean of both orientations.

Test [45] has as its target T43, 4H2343-AA.
T43 chain: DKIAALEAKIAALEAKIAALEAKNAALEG
Kind of test: two-hybrid library CCmax. The following applies: mean of both orientations.

The target in test [46] is T44, 4H2124-AA.
T44 chain: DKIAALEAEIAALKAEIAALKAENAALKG
Kind of test: two-hybrid library CCmax. As to conditions: mean of both orientations.

For DKNSQLKQKISELKQKISELKWENSQLEQ [P12A-bS], the interaction score in [1] was -1.69; in test [2] it was -0.873; in test [3], -1.48; in [4], -0.648; in test [5], -0.87; in test [6] it was -0.676. Also, the interaction score is -1.12 in test [7], -2.21 in [8], -1.07 in test [9] and -2.43 in test [10].
For DKNSQLKQENSELEQKISELKWKISQLKQ [P10A-bS], the interaction score in [1] was -0.0157; in test [11], -0.138; in test [2], -0.464; in [3], -0.0445; in [4] it was -2.5; in test [5] it was -1.53. In addition, the interaction score in [7] was -0.106; in test [8], -1.76; in test [9], -0.395; in test [10], -0.693.
As to DEIAALEAEEAALEAENAALEAEIAALEG [P1-AA-1HAA-E], the interaction score in test [12] was found to be 1.66; in [13], 0.691; in test [14], 1.57; in test [15], 1.9; in test [16], 1.57; in [17] it was 1.82.
With DENSQLEQEISELEQEISELEWKNSQLKQ [P11A-bS], the interaction score in [1] was -0.288; in test [11] it was -0.865; in test [2] it was -1.25; in test [3] it was 2.41; in test [4] it was 0.728; in test [5], 0.727. Further, the interaction score was -0.134 in test [6]; 0.142 in test [7]; -0.458 in [8]; 0.714 in test [9]; -0.458 in test [10].
For DENAALKAEIAALKAKNAALEAEIAALKG [4H1650-AA], the interaction score was -1.47 in test [18]; -1.3 in test [19]; -1.54 in test [20]; -1.67 in test [21]; -1.43 in test [22]; -2.36 in test [23]. Moreover, the interaction score was -1.61 in test [24]; -1.34 in [25]; -1.16 in [26]; -1.25 in [27]; -1.36 in test [28]; -1.13 in test [29]. For the same molecule, the interaction score in test [30] was -1.48; in test [31], -1.9; in test [32], -1.48; in test [33] it was -1.53; in test [34], -0.897; in test [35], -1.53. The interaction score in test [36] is -1.67; in test [37], 1.93; in test [38], -1.74; in test [39] it was -0.999; in test [40] it was -1.61; in test [41] it was -1.59. In addition, the interaction score in test [42] is -1.42; in test [43] it was -1.42; in test [44], -1.71; in test [45], -1.44; in [46], -1.42.
